{"source": "the DeepSol protein solubility set"}
{"assay": "soluble on expression in E. coli; label from the status in PepcDB or PDB records"}
{"sequence": "MTKYRLSEEPRAFTYQVDGEKKSVLLRQVIAVTDFNDVKAGTSGGWVDAGNVLSQQGDCWIYDENAMAFAGTEITGNARITQPCSLYNNVRIGDNVWIDRSDISDGARISDNVTIQSSSVRGECAIYGDARVLNQSEILAVQGLTHEHAQILQIYDRATVNHSRIVHQVQLYGDATITLAFIEHRAEVFDFALIEGNKDNNVWICDCAKVYGHARVIAGTEEDAIPTLRYSSQVAEHALIEGNCVLKHHVLVGGHAEIRGGPILLDDRVLIEGQACIQGEILIEHQVEISGRATVIAFDGNTIHLRGPKVINGEDRITRTPLVGSLLEHHHHHH", "soluble on expression in E. coli": "soluble"}
{"sequence": "MGSDKIHHHHHHMTANEKKDLAHARVSASDGADAWVRFTVAGKRFDMPVVINASTRSLGASIIVNRMLSRRAPNDARPLMLVTQHITSRMADDLIAKGIPFLDTAGNAYLHEPEATIMIVGRDKPALNLKNPTSRSTTPKGLRVTFALLTQPGLVHAPYRTIADRSAVALNTVNLAMDDLIYRGLVVHKGARRVIADRRRLIEEWASLFPTRLRPKLSPCRFTSWTKESNWWSRPEILDIDARLGGEAGADILTHEIKPASLTIYSHRGITPRLMLNGMLRPDDRGNVEVLETFWPAKAEEGWNLPHREVVHPLLIYSDLITSGDDRNRAVAQTIYDRYLAKERA", "soluble on expression in E. coli": "not soluble"}
{"sequence": "MPTIKDYYLPKRPTLLFSLHPEPTQAIINGTKILEYRRRFFARPFQAFVYTTGDNGGIQLFLRCDQGLQLVPEQLALVGALLQHDAPTTTAAYFEGAKAGLALPITAFTTLPNIPLAQLRRQFENFVTPRSYVFLDQPDRQAQLDWLLTQPCESLTILDWRKRYAALATLLQKLEHHHHHH", "soluble on expression in E. coli": "not soluble"}
{"sequence": "MGSDKIHHHHHHMQKPHLLITSAGRRAKLVEYFVKEFKTGRVSTADCSPLASALYMADQHYIVPKIDEVEYIDHLLTLCQDEGVTALLTLIDPELGLLAQATERFQAIGVTVIVSPYAACELCFDKYTMYEYCLRQGIAHARTYATMASFEEALAAGEVQLPVFVKPRNGSASIEVRRVETVEEVEQLFSKNTDLIVQELLVGQELGVDAYVDLISGKVTSIFIKEKLTMRAGETDKSRSVLRDDVFELVEHVLDGSGLVGPLDFDLFDVAGTLYLSEINPRFGGGYPHAYECGVNFPAQLYRNLMHEINVPQIGQYLDDIYMLKHDTVTLISAAELQKIKR", "soluble on expression in E. coli": "not soluble"}
{"sequence": "MSLPPILTSQIGPDSIELRLLVAADLEYFNGHFPEQAVLPGVTQLDWAVRLGCEHFGYSAAVANLEVLKFQQLILPGQEVTLVISHNATKEKLTFAYSDGDHRYASGRISFASKQDDGLEHHHHHH", "soluble on expression in E. coli": "not soluble"}
{"sequence": "GHHHHHHMKVGYVAIVGKPNVGKSTLLNNLLGTKVSIISPKAGTTRMRVLGVKNIPNEAQIIFLDTPGIYEPKKSDVLGHSMVEIAKQSLEEADVILFMIDATEGWRPRDEEIYQNFIKPLNKPVIVVINKIDKIGPAKNVLPLIDEIHKKHPELTEIVPISALKGANLDELVKTILKYLPEGEPLFPEDMITDLPLRLLAAEIVREKAMMLTREEVPTSIAVKINEIKPGDANPNMLVIKGEIIVDRENLKPIIIGKKGQRLKEIGKRARQELELILGRPVYLELWVKVVPDWRRRPEYVRLFGYAL", "soluble on expression in E. coli": "soluble"}
{"sequence": "MAHHHHHHMRRWGAAGPLRSGLQLRQVASAARRRQPAQLKIPISDAPAHVKAMERPRSKLETPAAYSSFRSTETIEEFRENYKYLAAGERETSVTARVAGRITSLRDMGKMLFATVRSSGVDLQLVVHVGEHFTRDCLKQLRASLRVGDIVGAEGIPCRMQRGELSLAASRVEVLAPYVCRDQVVCPDLRGFTQLQDNDVRYRYRFVDMMTNRSVIDTIRKRHTVLQSLREYLDMRHFVEVETPILHTVASGANAKPFVTHHNANNADLFLRVAPELYLKQCVVGGLERVYEIGKVFRNEDADRSHNPEFTTCEFYAAYHTYEDLITMTEDIFRHLALRANGTTQLQIQCERAGITREIDLGATFRRISVYDEIQSASGVELPPPNELNTPKGLAYMSAIMLRHDIQFPAVRTAAKMFDKLIDFFITSHIVEPTFVMDHPIFMSPLAKEHSSRPGLAERFELFINGIEYCNAYSELNDPQEQCHRFQQQLIDRQGGDEEAMPLDETFLKSLQVGLPPTAGWGMGIDRVVMLLSGSSTIRDGIIFPLLRQDTRSHDCKRRHRVATFFDFNHQMALLCLSGVEQEMKRRGFPEASCAHIRELRQTIRDLGQRSGESDLTNFNCGEWWPGLTKTMIRLMCGRPRS", "soluble on expression in E. coli": "not soluble"}
{"sequence": "MNSTFIVNFVGKATPATIKQLAAVTHENGGKWLISKVNFIEDSVAAVIKIELPADNASTVKQAFQTYPSLLVEITDADPHVHKSDAVYKVRLDANDRAGIVNEITHLLDGQGISILDMDCQRVFIAGGGGISSSLFTANVAMRLPVNIEIDDVINELEALSEDTRVTLEA", "soluble on expression in E. coli": "not soluble"}
{"sequence": "SEISRQEFQRRRQALVEQMQPGSAALIFAAPEVTRSADSEYPYRQNSDFWYFTGFNEPEAVLVLIKSDDTHNHSVLFNRVRDLTAEIWFGRRLGQDAAPEKLGVDRALAFSEINQQLYQLLNGLDVVYHAQGEYAYADVIVNSALEKLRKGSRQNLTAPATMIDWRPVVHEMRLFKSPEEIAVLRRAGEITAMAHTRAMEKCRPGMFEYHLEGEIHHEFNRHGARYPSYNTIVGSGENGCILHYTENECEMRDGDLVLIDAGCEYKGYAGDITRTFPVNGKFTQAQREIYDIVLESLETSLRLYRPGTSILEVTGEVVRIMVSGLVKLGILKGDVDELIAQNAHRPFFMAGLSHWLGLDVHDVGVYGQDRSRILEPGMVLTVEPGLYIAPDAEVPEQYRGIGIRIEDDIVITETGNENLTASVVKKPEEIEALMVAARKQ", "soluble on expression in E. coli": "soluble"}
{"sequence": "MLRKLSKFSNKGEVFMGLLEGKRALITGVANERSIAYGIAKSFHREGAQLAFTYATPKLEKRVREIAKGFGSDLVVKCDVSLDEDIKNLKKFLEENWGSLDIIVHSIAYAPKEEFKGGVIDTSREGFKIAMDISVYSLIALTRELLPLMEGRNGAIVTLSYYGAEKVVPHYNVMGIAKAALESTVRYLAYDIAKHGHRINAISAGPVKTLAAYSITGFHLLMEHTTKVNPFGKPITIEDVGDTAVFLCSDWARAITGEVVHVDNGYHIMGVFGREEEIKKEVYGD", "soluble on expression in E. coli": "soluble"}
{"sequence": "MSYFKNAFNQKSLIDDSSVYLEPCSSSNFIELKRMHYNEENTKKTWDIIKSLDSVAVLLYEKESDCFVIVKQFRPAIYARRFHFKCDQDQTIDGYTYELCAGLVDKANKSLEEIACEEALEECGYQISPKNLETIGQFYSATGLSGSLQTLYYAEVHKNLKVSKGGGIDTERIEVLFLERSKALDFIMDFQYAKTTGLSLAILWHLKKFKNV", "soluble on expression in E. coli": "not soluble"}
{"sequence": "MGSDKIHHHHHHMRNRREVSKLLSERVLLLDGAYGTEFMKYGYDDLPEELNIKAPDVVLKVHRSYIESGSDVILTNTFGATRMKLRKHGLEDKLDPIVRNAVRIARRAAGEKLVFGDIGPTGELPYPLGSTLFEEFYENFRETVEIMVEEGVDGIIFETFSDILELKAAVLAAREVSRDVFLIAHMTFDEKGRSLTGTDPANFAITFDELDIDALGINCSLGPEEILPIFQELSQYTDKFLVVEPNAGKPIVENGKTVYPLKPHDFAVHIDSYYELGVNIFGGCCGTTPEHVKLFRKVLGNRKPLQRKKKRIFAVSSPSKLVTFDHFVVIGERINPAGRKKLWAEMQKGNEEIVIKEAKTQVEKGAEVLDVNFGIESQIDVRYVEKIVQTLPYVSNVPLSLDIQNVDLTERALRAYPGRSLFNSAKVDEEELEMKINLLKKYGGTLIVLLMGKDVPKSFEERKEYFEKALKILERHDFSDRVIFDPGVLPLGAEGKPVEVLKTIEFISSKGFNTTVGLSNLSFGLPDRSYYNTAFLVLGISKGLSSAIMNPLDETLMKTLNATLVILEKKELPRAEVKEEKLVEIILSGNRSELEKLVEDFLKEKDPLSVIEEHLRPAMERIGELYDKGKIFLPQLILAAQTVKPVFDKLTSMLPSDSQGETFVIATVKGDVHDIGKNIVASVIRSSGYRVVDLGKDVDTSEIVEAVEKERPVALGLSAMMTTTVGRIKEVVEKLKEKNLKIPVIVGGASLNEKLAKELGADYYAKNASEAVKILKSLGR", "soluble on expression in E. coli": "not soluble"}
{"sequence": "GIYQHFSIEDRPFLDKGMEWIKKVEDSYAPFLTPFINPHQEKLLKILAKTYGLACSSSGEFVSSEYVRVLLYPDYFQPEFSDFEISLQEIVYSNKFEYLTHAKILGTVINQLGIERKLFGDILVDEERAQIMINQQFLLLFQDGLKKIGRIPVSLEERPFTEKID", "soluble on expression in E. coli": "soluble"}
{"sequence": "MSLRTYENVVILTDLTAGTTYYYKIVSTNSTVDHFLSPRVPGDETPFSINAVIDLGVYGEDGYTIKGDKSKKDTIPTINPALNHTTIGRLASTVDDYEFVIHPGDFAYADDWFLSLDNLLDGENAYQAILENFYEQLAPISGRKPYMASPGNHEAACQEIPFTTGLCPDGQKNFTDFMHRFGRTMPSSFTSVSTNDSAKVFANQARELAQPPFWYSFEYGMAHIVMINTETDFEDAPSGKGGSAHLNGGPFGAKNQQLEFLEADLASVDRDVTPWVIVAGHRPWYTAGSACTPCQEAFEDLLYTYGVDLGVFGHVHNAQRFLPVYNSVADPNGMQDPKAPMYIVAGGAGNIEGLSSITKQLDFTEFANDEDYTYSTIRFLDRNHLQVDFINSVSGEVLDTSTLYKSHEARFVREGHHHHHH", "soluble on expression in E. coli": "not soluble"}
{"sequence": "MEVVEAAAAQLETLKFNGTDFGVGEGPAAPSPGSAPVPGTQPPLQSFEGSPDAGQTVEVKPAGEQPLQPVLNAVAAGTPAPQPQPPAESPACGDCVTSPGAAEPARAPDSLETSDSDSDSDSETDSDSSSSSSSSSSSSSSSSSSCISLPPVLSDGDDDLQVEKENKNFPLKTKDELLLNELPSVEELTIILPEDIELKPLGMVSSIIEQLVIIESMTNLPPVNEETVIFKSDRQAAGKIFEIFGPVAHPFYVLRFNSSDHIESKGIKIKETMYFAPSMKDFTQYIFTEKLKQDKGSDASWKNDQEPPPEALDFSDDEKEKEAKQRKKSQIQGRKKLKSEFNEPGEDFTEVHQNWNAHSSASEHAKGYRNREFTRGFSRARYPRSCHGRPPPQHFYNSEHMVSQETSGFPSQRQNNPIMPQYPFPLPVFDMHNFPLRPPPPPPPPPVNMGWATPNMAAHPLLNLPYSLPPPPPPPPLPPPPSSGDSNSHFGPYY", "soluble on expression in E. coli": "soluble"}
{"sequence": "MGSDKIHHHHHHMEKMTFGLIVGNREFFPDRLVEEGRERVIKVLEGMGYRVVTLSPSDTKLGAVETAKDAKKCAELFKEKAGEIDGIIVTLPNFGDEKGVAQAIRLSGLNVPVLVHAFPDDPEKLDLQNRRDSFCGKISVSNNLKQYGIEFSLTTLHTEDPESEVFKRDIEKFAAVCRIVKGMRNIKVGAIGARPSAFNTVRFSEKILERMSISVETVDLSEILHRVSNLKDDDERVRRKLEEIKKNYRLQIVPEEKILLMAKFGSVIDEWIEENDIKALAIQCWTSLEWNLGITPCTIMSLLNEKGKPAACEVDITGALSMYVLQLASGQPSAIVDWNNNYRDENETILFHCGNFPASIYEEKPEIKYADVIGTTVGKERAYGACAGKIKTSPFTFLRLTTDDNEGKVKAYVGEGQILDENPKTFGSRGVARIEKLQELMKYICENGFEHHVAINLSRVADAVKEALEKYLGIVVHKHNAEV", "soluble on expression in E. coli": "not soluble"}
{"sequence": "MPFIDLQSKLGINVDKWLLAQSGEQPRKRAAFCHAFEKEWIECSHAIGKTRASKECNIEWEDFYECMHRFKTMKRLKEISTQKEKMIKEGTYTPPPHHTGKGEPLS", "soluble on expression in E. coli": "not soluble"}
{"sequence": "MGSDKIHHHHHHMSEEKNTAIDLKNLKAGGFIKERGKDLFTVRLRVPGGRLPVGRLKKIAEVAEKYGQGMVHLSVRQSVELININFRDFDAVVAELGEGTQKVASCGARVRVPTACGGCEYNPNGLVDTQKSALEVDEKLFGIPTGHHKFKVGFAGCPFDCPKSATNDVGFQGAVWPVLSADHCIGCGLCAKSCTEDAIAMGDNGKPLFIPANCLYCGDCLKVCPTEAWRAGKKGYTVRIGGKWGRRPLVGTLFAEFLPEDQVVDFIAAVLGWYQEKAEGQGRIRLGDVIRAQGPEALLARLRERFPAFVVNATIAPQAIATQVGKEKQAHDNR", "soluble on expression in E. coli": "not soluble"}
